Results from patent publication US7582460B2 (Wacker Chemie AG, priority 2003, dated 2009).

B1: serA49: E. coli PGD variant with replacement G349P (protein, UniProt P0A9T0 2-410, looked up, variant G349P)
D-3-phosphoglycerate …: AKVSLEKDKIKFLLVEGVHQKALESLRAAGYTNIEFHKGALDDEQLKESIRDAHFIGLRSRTHLTEDVINAAEKLVAIGCFCIGTNQVDLDAAAKRGIPVFNAPFSNTRSVAELVIGELLLLLRGVPEANAKAHRGVWNKLAAGSFEARGKKLGIIGYGHIGTQLGILAESLGMYVYFYDIENKLPLGNATQVQHLSDLLNMSDVVSLHVPENPSTKNMMGAKEISLMKPGSLLINASRGTVVDIPALCDALASKHLAGAAIDVFPTEPATNSDPFTSPLCEFDNVLLTPHIGGSTQEAQENIGLEVAGKLIKYSDNGSTLSAVNFPEVSLPLHGGRRLMHIHENRPPVLTALNKIFAEQGVNIAAQYLQTSAQMGYVVIDIEADEDVAEKALQAMKAIPGTIRARLLY
B2: serA206: E. coli PGD variant with replacement T372P (protein, UniProt P0A9T0 2-410, looked up, variant T372P)
D-3-phosphoglycerate …: AKVSLEKDKIKFLLVEGVHQKALESLRAAGYTNIEFHKGALDDEQLKESIRDAHFIGLRSRTHLTEDVINAAEKLVAIGCFCIGTNQVDLDAAAKRGIPVFNAPFSNTRSVAELVIGELLLLLRGVPEANAKAHRGVWNKLAAGSFEARGKKLGIIGYGHIGTQLGILAESLGMYVYFYDIENKLPLGNATQVQHLSDLLNMSDVVSLHVPENPSTKNMMGAKEISLMKPGSLLINASRGTVVDIPALCDALASKHLAGAAIDVFPTEPATNSDPFTSPLCEFDNVLLTPHIGGSTQEAQENIGLEVAGKLIKYSDNGSTLSAVNFPEVSLPLHGGRRLMHIHENRPGVLTALNKIFAEQGVNIAAQYLQPSAQMGYVVIDIEADEDVAEKALQAMKAIPGTIRARLLY
B3: serA415: E. coli PGD variant with replacement G349K (protein, UniProt P0A9T0 2-410, looked up, variant G349K)
D-3-phosphoglycerate …: AKVSLEKDKIKFLLVEGVHQKALESLRAAGYTNIEFHKGALDDEQLKESIRDAHFIGLRSRTHLTEDVINAAEKLVAIGCFCIGTNQVDLDAAAKRGIPVFNAPFSNTRSVAELVIGELLLLLRGVPEANAKAHRGVWNKLAAGSFEARGKKLGIIGYGHIGTQLGILAESLGMYVYFYDIENKLPLGNATQVQHLSDLLNMSDVVSLHVPENPSTKNMMGAKEISLMKPGSLLINASRGTVVDIPALCDALASKHLAGAAIDVFPTEPATNSDPFTSPLCEFDNVLLTPHIGGSTQEAQENIGLEVAGKLIKYSDNGSTLSAVNFPEVSLPLHGGRRLMHIHENRPKVLTALNKIFAEQGVNIAAQYLQTSAQMGYVVIDIEADEDVAEKALQAMKAIPGTIRARLLY
B4: serA411: E. coli PGD variant with replacement G349T (protein, UniProt P0A9T0 2-410, looked up, variant G349T)
D-3-phosphoglycerate …: AKVSLEKDKIKFLLVEGVHQKALESLRAAGYTNIEFHKGALDDEQLKESIRDAHFIGLRSRTHLTEDVINAAEKLVAIGCFCIGTNQVDLDAAAKRGIPVFNAPFSNTRSVAELVIGELLLLLRGVPEANAKAHRGVWNKLAAGSFEARGKKLGIIGYGHIGTQLGILAESLGMYVYFYDIENKLPLGNATQVQHLSDLLNMSDVVSLHVPENPSTKNMMGAKEISLMKPGSLLINASRGTVVDIPALCDALASKHLAGAAIDVFPTEPATNSDPFTSPLCEFDNVLLTPHIGGSTQEAQENIGLEVAGKLIKYSDNGSTLSAVNFPEVSLPLHGGRRLMHIHENRPTVLTALNKIFAEQGVNIAAQYLQTSAQMGYVVIDIEADEDVAEKALQAMKAIPGTIRARLLY
B5: serA223: E. coli PGD variant with replacement T372E (protein, UniProt P0A9T0 2-410, looked up, variant T372E)
D-3-phosphoglycerate …: AKVSLEKDKIKFLLVEGVHQKALESLRAAGYTNIEFHKGALDDEQLKESIRDAHFIGLRSRTHLTEDVINAAEKLVAIGCFCIGTNQVDLDAAAKRGIPVFNAPFSNTRSVAELVIGELLLLLRGVPEANAKAHRGVWNKLAAGSFEARGKKLGIIGYGHIGTQLGILAESLGMYVYFYDIENKLPLGNATQVQHLSDLLNMSDVVSLHVPENPSTKNMMGAKEISLMKPGSLLINASRGTVVDIPALCDALASKHLAGAAIDVFPTEPATNSDPFTSPLCEFDNVLLTPHIGGSTQEAQENIGLEVAGKLIKYSDNGSTLSAVNFPEVSLPLHGGRRLMHIHENRPGVLTALNKIFAEQGVNIAAQYLQESAQMGYVVIDIEADEDVAEKALQAMKAIPGTIRARLLY
B6: serA21: E. coli PGD variant with replacement T372D (protein, UniProt P0A9T0 2-410, looked up, variant T372D)
D-3-phosphoglycerate …: AKVSLEKDKIKFLLVEGVHQKALESLRAAGYTNIEFHKGALDDEQLKESIRDAHFIGLRSRTHLTEDVINAAEKLVAIGCFCIGTNQVDLDAAAKRGIPVFNAPFSNTRSVAELVIGELLLLLRGVPEANAKAHRGVWNKLAAGSFEARGKKLGIIGYGHIGTQLGILAESLGMYVYFYDIENKLPLGNATQVQHLSDLLNMSDVVSLHVPENPSTKNMMGAKEISLMKPGSLLINASRGTVVDIPALCDALASKHLAGAAIDVFPTEPATNSDPFTSPLCEFDNVLLTPHIGGSTQEAQENIGLEVAGKLIKYSDNGSTLSAVNFPEVSLPLHGGRRLMHIHENRPGVLTALNKIFAEQGVNIAAQYLQDSAQMGYVVIDIEADEDVAEKALQAMKAIPGTIRARLLY
B7: serA414: E. coli PGD variant with replacement G349A (protein, UniProt P0A9T0 2-410, looked up, variant G349A)
D-3-phosphoglycerate …: AKVSLEKDKIKFLLVEGVHQKALESLRAAGYTNIEFHKGALDDEQLKESIRDAHFIGLRSRTHLTEDVINAAEKLVAIGCFCIGTNQVDLDAAAKRGIPVFNAPFSNTRSVAELVIGELLLLLRGVPEANAKAHRGVWNKLAAGSFEARGKKLGIIGYGHIGTQLGILAESLGMYVYFYDIENKLPLGNATQVQHLSDLLNMSDVVSLHVPENPSTKNMMGAKEISLMKPGSLLINASRGTVVDIPALCDALASKHLAGAAIDVFPTEPATNSDPFTSPLCEFDNVLLTPHIGGSTQEAQENIGLEVAGKLIKYSDNGSTLSAVNFPEVSLPLHGGRRLMHIHENRPAVLTALNKIFAEQGVNIAAQYLQTSAQMGYVVIDIEADEDVAEKALQAMKAIPGTIRARLLY
B8: serA410: E. coli PGD variant with replacement G349S (protein, UniProt P0A9T0 2-410, looked up, variant G349S)
D-3-phosphoglycerate …: AKVSLEKDKIKFLLVEGVHQKALESLRAAGYTNIEFHKGALDDEQLKESIRDAHFIGLRSRTHLTEDVINAAEKLVAIGCFCIGTNQVDLDAAAKRGIPVFNAPFSNTRSVAELVIGELLLLLRGVPEANAKAHRGVWNKLAAGSFEARGKKLGIIGYGHIGTQLGILAESLGMYVYFYDIENKLPLGNATQVQHLSDLLNMSDVVSLHVPENPSTKNMMGAKEISLMKPGSLLINASRGTVVDIPALCDALASKHLAGAAIDVFPTEPATNSDPFTSPLCEFDNVLLTPHIGGSTQEAQENIGLEVAGKLIKYSDNGSTLSAVNFPEVSLPLHGGRRLMHIHENRPSVLTALNKIFAEQGVNIAAQYLQTSAQMGYVVIDIEADEDVAEKALQAMKAIPGTIRARLLY
B9: serA412: E. coli PGD variant with replacement G349V (protein, UniProt P0A9T0 2-410, looked up, variant G349V)
D-3-phosphoglycerate …: AKVSLEKDKIKFLLVEGVHQKALESLRAAGYTNIEFHKGALDDEQLKESIRDAHFIGLRSRTHLTEDVINAAEKLVAIGCFCIGTNQVDLDAAAKRGIPVFNAPFSNTRSVAELVIGELLLLLRGVPEANAKAHRGVWNKLAAGSFEARGKKLGIIGYGHIGTQLGILAESLGMYVYFYDIENKLPLGNATQVQHLSDLLNMSDVVSLHVPENPSTKNMMGAKEISLMKPGSLLINASRGTVVDIPALCDALASKHLAGAAIDVFPTEPATNSDPFTSPLCEFDNVLLTPHIGGSTQEAQENIGLEVAGKLIKYSDNGSTLSAVNFPEVSLPLHGGRRLMHIHENRPVVLTALNKIFAEQGVNIAAQYLQTSAQMGYVVIDIEADEDVAEKALQAMKAIPGTIRARLLY
B10: serA229: E. coli PGD variant with replacement T372R (protein, UniProt P0A9T0 2-410, looked up, variant T372R)
D-3-phosphoglycerate …: AKVSLEKDKIKFLLVEGVHQKALESLRAAGYTNIEFHKGALDDEQLKESIRDAHFIGLRSRTHLTEDVINAAEKLVAIGCFCIGTNQVDLDAAAKRGIPVFNAPFSNTRSVAELVIGELLLLLRGVPEANAKAHRGVWNKLAAGSFEARGKKLGIIGYGHIGTQLGILAESLGMYVYFYDIENKLPLGNATQVQHLSDLLNMSDVVSLHVPENPSTKNMMGAKEISLMKPGSLLINASRGTVVDIPALCDALASKHLAGAAIDVFPTEPATNSDPFTSPLCEFDNVLLTPHIGGSTQEAQENIGLEVAGKLIKYSDNGSTLSAVNFPEVSLPLHGGRRLMHIHENRPGVLTALNKIFAEQGVNIAAQYLQRSAQMGYVVIDIEADEDVAEKALQAMKAIPGTIRARLLY
B11: serA234: E. coli PGD variant with replacement T372K (protein, UniProt P0A9T0 2-410, looked up, variant T372K)
D-3-phosphoglycerate …: AKVSLEKDKIKFLLVEGVHQKALESLRAAGYTNIEFHKGALDDEQLKESIRDAHFIGLRSRTHLTEDVINAAEKLVAIGCFCIGTNQVDLDAAAKRGIPVFNAPFSNTRSVAELVIGELLLLLRGVPEANAKAHRGVWNKLAAGSFEARGKKLGIIGYGHIGTQLGILAESLGMYVYFYDIENKLPLGNATQVQHLSDLLNMSDVVSLHVPENPSTKNMMGAKEISLMKPGSLLINASRGTVVDIPALCDALASKHLAGAAIDVFPTEPATNSDPFTSPLCEFDNVLLTPHIGGSTQEAQENIGLEVAGKLIKYSDNGSTLSAVNFPEVSLPLHGGRRLMHIHENRPGVLTALNKIFAEQGVNIAAQYLQKSAQMGYVVIDIEADEDVAEKALQAMKAIPGTIRARLLY

Experiments:
[1] = test system: 3-phosphoglycerate dehydrogenase (PGD); experiment: PGD enzyme activity in crude extracts (McKitrick and Pizer test); assay type: biochemical, Escherichia coli; conditions: crude extract of strain expressing plasmid-encoded serA allele; backward reaction, NADH oxidation at 340 nm
Text: (§1) For example, the PGD activity can be determined in analogy with the method described by McKitrick and Pizer (1980, J. Bacteriol. 141:235-245). The backward reaction is used to measure the enzyme activity in an assay sample which contains phosphohydroxypyruvate and NADH/H^+. The reaction is started by adding enzyme and is monitored in a spectrophotometer by way of the decrease in extinction at 340 nm which is caused by oxidation of the NADH/H^+.
(§2) At an optical density of 1.0, serA expression was in each case induced by adding 0.4 mM […] and the culture was incubated for a further 3 hours. The cells were subsequently harvested by centrifugation, washed and resuspended in 2 ml of buffer (100 mM K-phosphate, pH 7.0; 10 mM MgCl2; 1 mM dithiothreitol). The cells were disrupted using a French press (Spectronic Instruments, Inc. Rochester, N.Y., USA) at a pressure of 18 000 psi. The crude extracts were clarified by centrifugation at 30 000 g and PGD activity was determined using the McKitrick and Pizer test (1980, J. Bacteriol. 141:235-245).

[2] = molecular target: 3-phosphoglycerate dehydrogenase (PGD); experiment: Inhibition of PGD activity by L-serine, inhibitor constant Ki; assay type: biochemical, Escherichia coli; conditions: Ki = inhibitor concentration at which activity is 50% of activity without inhibitor
Text: as §1, §2

Molecule | Activity [1] [units/mg] | Ki [2] [mM]
B1 | 0.05 | 6
B2 | 0.05 | 
B3 | 0.03 | 15
B4 | 0.04 | 3
B5 | 0.04 | 
B6 | 0.05 | 
B7 | 0.05 | 1
B8 | 0.04 | 2
B9 | 0.05 | 5
B10 | 0.04 | 
B11 | 0.05 | 
